Measured values from patent publication US20210101970A1 (Pfizer, published 2021).
Blank lines part the entries; values can stand above or below the binder they belong to.

Tests used:
[1] = target: T1, CXCR1 (human, UniProt P25024 1-350); experiment: flow cytometry (GMFI) on fixed CXCR1 cells, chimeric antibody, goat anti-human PE
T1 construct: whole, on cells
T1 sequence (looked up): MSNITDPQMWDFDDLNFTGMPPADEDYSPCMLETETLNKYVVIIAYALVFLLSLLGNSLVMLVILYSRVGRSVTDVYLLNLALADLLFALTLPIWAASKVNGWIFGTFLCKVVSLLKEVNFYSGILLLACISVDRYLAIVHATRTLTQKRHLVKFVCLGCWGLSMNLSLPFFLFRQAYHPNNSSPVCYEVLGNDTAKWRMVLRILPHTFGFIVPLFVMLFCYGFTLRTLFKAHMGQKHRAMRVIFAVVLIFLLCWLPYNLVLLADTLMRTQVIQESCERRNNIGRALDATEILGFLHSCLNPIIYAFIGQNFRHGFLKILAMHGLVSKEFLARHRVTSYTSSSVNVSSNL
Experimental: (§1) To determine the specificity of the antibodies for CXCR5, the binding of the antibodies to cells expressing other […] was assessed. Briefly, FlowCellect chemokine receptor cell lines expressing CXCR1, CXCR2, or CXCR3 (EMD Millipore, Billerica, Mass.), and Jurkats (ATCC, Manassas, Va.), which express CXCR4, were stained with 5 μg/ml or 10 μg/ml of each anti-CXCR5 chimeric antibody. The cells were then incubated with goat anti-human conjugated with PE (Southern Biotech, Birmingham, Ala.) prior to analysis by flow cytometry using a FACSVerse Analyzer (BD Biosciences, Franklin Lakes, N.J.).

[2] = target: T2, CXCR4 (human, UniProt P61073 1-352); experiment: flow cytometry (GMFI) on Jurkat cells, which express CXCR4; chimeric antibody, goat anti-human PE
T2 construct: whole, on cells
T2 sequence (P61073 whole entry): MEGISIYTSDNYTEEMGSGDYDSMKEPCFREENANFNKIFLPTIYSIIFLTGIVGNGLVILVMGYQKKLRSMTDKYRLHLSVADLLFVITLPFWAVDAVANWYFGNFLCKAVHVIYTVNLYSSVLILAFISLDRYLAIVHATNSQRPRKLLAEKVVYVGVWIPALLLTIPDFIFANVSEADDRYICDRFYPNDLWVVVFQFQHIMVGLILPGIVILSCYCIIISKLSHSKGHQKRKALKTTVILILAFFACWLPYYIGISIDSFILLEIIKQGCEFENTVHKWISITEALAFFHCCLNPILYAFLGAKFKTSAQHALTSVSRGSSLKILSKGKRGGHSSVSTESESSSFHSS
Experimental: as §1

[3] = target: T3, CXCR3 (human, UniProt P49682 1-368); experiment: flow cytometry (GMFI) on fixed CXCR3 cells, chimeric antibody, goat anti-human PE
T3 construct: whole, on cells
T3 sequence (looked up): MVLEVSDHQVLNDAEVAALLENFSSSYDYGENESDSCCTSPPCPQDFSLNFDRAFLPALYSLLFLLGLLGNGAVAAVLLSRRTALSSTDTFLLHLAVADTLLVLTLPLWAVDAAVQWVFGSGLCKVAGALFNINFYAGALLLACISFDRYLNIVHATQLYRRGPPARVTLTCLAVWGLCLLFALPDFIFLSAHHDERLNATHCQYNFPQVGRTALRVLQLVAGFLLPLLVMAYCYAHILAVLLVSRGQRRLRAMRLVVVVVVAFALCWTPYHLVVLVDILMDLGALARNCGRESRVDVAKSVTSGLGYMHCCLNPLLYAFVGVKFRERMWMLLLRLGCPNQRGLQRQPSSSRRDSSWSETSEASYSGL
Experimental: as §1

[4] = target: T4, human CXCR5 (human, UniProt P32302 1-372); experiment: cell-based or functional assay
T4 sequence: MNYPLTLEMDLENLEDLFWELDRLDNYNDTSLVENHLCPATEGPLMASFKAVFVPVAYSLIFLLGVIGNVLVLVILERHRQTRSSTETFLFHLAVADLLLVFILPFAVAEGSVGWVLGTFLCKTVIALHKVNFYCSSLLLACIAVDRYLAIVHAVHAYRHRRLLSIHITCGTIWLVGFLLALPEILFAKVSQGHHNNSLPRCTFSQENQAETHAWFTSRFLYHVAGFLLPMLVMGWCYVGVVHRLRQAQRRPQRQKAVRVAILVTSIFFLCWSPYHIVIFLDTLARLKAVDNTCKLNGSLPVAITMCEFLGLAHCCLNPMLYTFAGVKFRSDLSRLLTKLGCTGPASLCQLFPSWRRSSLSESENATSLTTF

[5] = target: T5, rat CXCR5 ortholog (rat, UniProt P34997 1-374); experiment: not described
T5 sequence (looked up): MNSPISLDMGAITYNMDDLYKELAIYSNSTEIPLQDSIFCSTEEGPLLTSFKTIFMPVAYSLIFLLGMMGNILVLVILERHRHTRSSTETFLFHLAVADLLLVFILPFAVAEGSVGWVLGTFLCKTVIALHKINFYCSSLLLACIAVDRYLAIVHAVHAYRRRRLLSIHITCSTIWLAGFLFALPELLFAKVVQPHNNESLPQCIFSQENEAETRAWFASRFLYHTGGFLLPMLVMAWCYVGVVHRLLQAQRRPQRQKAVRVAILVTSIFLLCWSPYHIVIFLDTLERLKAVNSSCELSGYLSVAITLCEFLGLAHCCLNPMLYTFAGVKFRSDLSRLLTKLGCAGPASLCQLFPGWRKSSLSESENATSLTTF

[6] = target: T6, cynomolgus monkey CXCR5 (cynomolgus monkey, UniProt P32302 1-372 (human entry)); experiment: flow cytometry on cynoCXCR5-300.19 cells
T6 construct: also called cynoCXCR5; NHP CXCR5
T6 chain: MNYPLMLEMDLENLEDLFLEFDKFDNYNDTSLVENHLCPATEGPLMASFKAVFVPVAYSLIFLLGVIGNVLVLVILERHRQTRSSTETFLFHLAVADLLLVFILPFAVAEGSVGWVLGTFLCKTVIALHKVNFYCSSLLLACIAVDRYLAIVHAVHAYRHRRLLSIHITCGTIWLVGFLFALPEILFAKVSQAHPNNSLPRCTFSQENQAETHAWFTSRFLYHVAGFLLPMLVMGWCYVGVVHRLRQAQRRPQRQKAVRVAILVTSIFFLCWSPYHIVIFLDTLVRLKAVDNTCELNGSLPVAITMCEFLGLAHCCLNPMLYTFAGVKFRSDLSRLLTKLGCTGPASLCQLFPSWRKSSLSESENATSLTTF

[7] = target: T4, human CXCR5; experiment: flow cytometry on Raji cells
[8] = target: T4, human CXCR5; experiment: flow cytometry, B cells from human PBMCs (FIG. 5); comparator 2C9
[9] = target: T4, human CXCR5; experiment: flow cytometry on Raji cells, gMFI titration
Experimental: The apparent affinity of antibody binding to Raji cells was calculated as the EC₅₀ of equilibrium binding titration curves in which the geometric mean fluorescence intensity (gMFI) of the antigen binding population was quantified by flow cytometry and the results are shown in Table 2.

B1: Chimeric 11G2 (antibody, human IgG1, kappa, V domains shown)
VH: EVKLVESGGGLVQPGGSLRLSCATSGFTFTDFYMSWVRQPPGRALEWLGFIRNKANGYTTEYSASVKGRFTISRDNSQSILYLQMNTLRAGDSATYYCVRVYGSTLHYWGQGTILTVSS
VL: DVVVTQSPDSLAVSLGQRATISCRASESVEYHGTSLMHWYQQKPGQPPKLLIYAASNVESGVPARFSGSGSGTDFSLNIHPVEEGDIAMYFCQQSRKVPWTFGGGTKLEIKR
notes: mouse V regions on human IgG1/kappa; also called 11G2 (chimeric)
- binding result [1]: no binding (tested: 5 or 10 µg/ml (not on the sheet))
- binding result [2]: no binding (tested: 5 or 10 µg/ml (not on the sheet))
- binding result [3]: no binding (tested: 5 or 10 µg/ml (not on the sheet))

- EC50, functional antagonism (cAMP assay) [4]: 0.961 nM
- binding result [5]: no binding
B2: Afucosyl humanized 11G2 154/155 (antibody, human IgG1, kappa, V domains shown)
VH: EVQLVESGGGLVQPGGSLRLSCAASGFTFTDFYMSWVRQAPGKGLEWVGFIRNKANGYTTEYSASVKGRFTISRDNAKNSLYLQMNSLRAEDTAVYYCARVYGSTLHYWGQGTLVTVSS
VL: DIQMTQSPSSLSASVGDRVTITCRASESVEYHGTSLMHWYQQKPGKAPKLLIYAASNVESGVPSRFSGSGSGTDFTLTISSLQPEDFATYYCQQSRKVPWTFGQGTKVEIKR
modifications: afucosylated Fc glycan (Asn297)
notes: also called afucosyl h11G2 XC154/XC155; afucosylated h11G2 VL XC154/VH XC155

- EC50 [6]: 0.131 nM
- EC50 [7]: 0.0999 nM
- EC50 [8]: 0.0624 nM
- EC50 [9]: 0.21 nM
B3: 2C9 (reference antibody) (antibody, human IgG1, kappa, V domains shown)
VH: EVQLVESGGGLVKPGGSLRLSCAASGFTFSTNAMNWVRQAPGKGLERVARIRSKSNNYATYYADSVKDRFTISRDDSKNTLYLQMNSLKTEDTAVYYCVTMIPFAYWGQGTLVTVSS
VL: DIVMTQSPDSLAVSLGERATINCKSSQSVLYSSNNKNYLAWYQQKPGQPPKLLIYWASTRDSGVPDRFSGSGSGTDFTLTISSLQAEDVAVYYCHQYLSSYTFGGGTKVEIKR
notes: fucosylated
